Measurements published in paper PMC9528872 (Nature Communications, 2022).

Experiments:
[1] = target: SARS-CoV-2 receptor binding domain (RBD), biotinylated (SARS-CoV-2, Wuhan-type, UniProt P0DTC2, biotin (BirA, on the Avi tag)); assay: BLI; details: both partners purified
[2] = target: T1, Tor2 SARS-CoV spike (Toronto, 2003) (SARS-CoV, strain Tor2); assay: ELISA; antibody at 2 ug/ml against Tor2 SARS-CoV spike
T1 construct: also called Tor2 spike protein

Binder	Kd [1] [nM]	koff [1] [s⁻¹]	kon [1] [M⁻¹ s⁻¹]	binding result [2]
Ab 2-7 scFv (scFv, V domains shown) VH: QVTLKESGPTRVKPTQTLTLTCTFSGFSLSTTGVGVGWIRQPPGKALEWLALIYWNDDKRYSPSLKSRLTITKDTSKNQVVLTMTNMDPVDTATYYCARISGSGYFYPFDIWGQGTTVTVSS VL: NFMLTQPHSVSESPGKTVTISCTRSSGSIASNYVQWYQQRPGSSPTTVIYEDNQRPSGVPDRFSGSIDSSSNSASLTISGLKAEDEADYYCQSYDSSSLWVFGGGTKLTVL	0.107	4.81e-05	452000	
Ab 2-7 scFv-Fc (Fc fusion) VH: QVTLKESGPTRVKPTQTLTLTCTFSGFSLSTTGVGVGWIRQPPGKALEWLALIYWNDDKRYSPSLKSRLTITKDTSKNQVVLTMTNMDPVDTATYYCARISGSGYFYPFDIWGQGTTVTVSS VL: NFMLTQPHSVSESPGKTVTISCTRSSGSIASNYVQWYQQRPGSSPTTVIYEDNQRPSGVPDRFSGSIDSSSNSASLTISGLKAEDEADYYCQSYDSSSLWVFGGGTKLTVL				binds
